The results in this text go back to PMC10134200 (Cell Insight, 2023).

The target of the assay is GST-CaM (glutathione S-transferase-tagged calmodulin) (UniProt P0DP23 1-149). Kind of assay: pull-down.

B1: His-P3CP (His-tagged TRPP3 C-terminal peptide I560-K660) (domain or fragment)
chain: INDTYSEVKEELAGQKDELQLSDLLKQGYNKTLLRLRLRKERVSDVQKVLQGGEQEIQFEDFTNTLRELGHAEHEITELTATFTKFDRDGNRILDEKEQEK
As to B1, the binding result is “binds”.
